In patent US20250163149A1, “ANTI-RAGE ANTIBODY” (Swansea University, priority 2022, published 2025):

Experiments:
RAGE synthetic peptide = molecular target: T1, RAGE synthetic peptide (Homo sapiens, UniProt Q15109); test: Surface plasmon resonance binding kinetics (Biacore T200), synthetic peptide analyte; conditions: chimeric antibodies and AB11451
T1 construct: purchased Biorad; host or cells: chemical synthesis
Protocol: (§1) For on-rate and off-rate screening, Biacore™ T200 system (Cytiva, Uppsala, Sweden) was used to perform SPR analysis with 1×HBS-EP+ buffer (0.01M Hepes, 0.15M NaCl, 0.003M ethylenediaminetetraacetic acid, and 0.05% Surfactant P20, pH 7.4) (BR100669) used as sample and running buffer. The analysis temperature at the sensor chip surface and within the compartment was set to 25° C. Firstly, pH scouting with 10 mM sodium acetate buffer 4.0 (BR-1003-49), 10 mM sodium acetate buffer 4.5 (BR-1003-50), 10 mM sodium acetate buffer 5.0 (BR-1003-51) and 10 mM sodium acetate buffer 5.5 (BR-1003-52) was performed to identify the optimal pH required for ligand (α-RAGE antibodies) immobilization. This was followed by diluting the ligand with the appropriate Acetate buffer to at least 10 μg/mL. The ligand immobilization on the surface Series S Sensor Chip CM5 (29-1496-03, Cytiva) was performed using the Amine Coupling Kit (BR100050, Cytiva) containing 1-Etyhyl-3-(3-dimethylaminopropyl)-carbodiimide hydrochloride (EDC), N-Hydroxysuccinimide (NHS) and 1.0M ethanolamine-HcL PH 8.5 in accordance with the manufacturer's instructions. For each experimental run, the ligand was immobilized in flow cells 2 or 4 while flow cells 1 or 3 were left unmodified. Flow cells 2 and 4 were used as active flow cells while flow cells 1 and 3 were used as reference flow cells. […]

[1] = molecular target: T2, RAGE recombinant protein (Human rRAGE) (Homo sapiens, UniProt Q15109); test: Surface plasmon resonance binding kinetics (Biacore T200), recombinant protein analyte; conditions: analyte RAGE recombinant protein, or RAGE synthetic peptide, not separated
T2 construct: Human rRAGE=Full-length RAGE recombinant protein from Merck; purchased Merck
T2 sequence (Q15109 23-404): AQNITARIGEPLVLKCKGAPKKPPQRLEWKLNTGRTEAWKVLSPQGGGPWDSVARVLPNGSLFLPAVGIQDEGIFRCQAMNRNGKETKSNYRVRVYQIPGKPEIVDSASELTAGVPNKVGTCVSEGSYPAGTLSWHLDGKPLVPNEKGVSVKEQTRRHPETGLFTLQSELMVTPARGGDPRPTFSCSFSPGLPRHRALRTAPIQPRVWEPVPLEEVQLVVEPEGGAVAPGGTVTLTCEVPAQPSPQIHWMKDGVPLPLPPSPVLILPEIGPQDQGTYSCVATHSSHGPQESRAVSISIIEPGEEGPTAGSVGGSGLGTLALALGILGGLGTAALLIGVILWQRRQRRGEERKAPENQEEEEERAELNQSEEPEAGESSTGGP
Protocol: as §1, with “cells. Ligand immobilization levels were typically within the range 500-900 RU for the kinetic experiments and injected with a flow rate of 10 μL/min and contact time of 300 s. Analytes (RAGE recombinant protein and synthetic peptides) were injected for 120 s with a flow rate of 30 μL/min and dissociation time of 600 s run in order of increasing concentration over the reference and active flow cells using a multi-cycle kinetic approach with five-seven concentration range. Following each binding cycle, the surface was regenerated with a 30 s injection of 10 mM Glycine-HcL, pH 2.5 regeneration solution (BR-1003-56), removing the bound antibody with a contact time of 30 s, flow rate of 30 μL/min and a stabilization period of Os.” for “cells.”

T1 sequence (Q15109 39-65 limits assumed): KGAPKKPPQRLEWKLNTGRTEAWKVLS

- binding affinity to the new synthetic peptides (RAGE synthetic peptide): the affinity is weak
- affinity interaction by SPR (summary statement) [1]: weaker affinity
B1: hHA9: chimeric humanised format of anti-RAGE antibody clone HA9 (antibody, V domains shown)
VH: EVKLVETGGGLVQPGRPMKLSCVASGFTLSDHWMNWVRQSPEKGLEWVAQIRNRPYKFEKYYSDSVKGRFTISRDDSKNSVYLQMNNLRAEDMGIYYCSSYRYGLAYWGQGTLVTVST
VL: DNLLTQSPAILSVSPGERVSFSCRASQTIDTRIHWYQQRKNGSPRLLIRYISESLSGIPSRFSGSGSGTEFTLTINSVESEDIADYYCQQTESWPITFGSGTKLEIK
- affinity interaction by SPR (summary statement) ([1]; listed as chimeric-HA9): weaker affinity than AB11451 antibody or the commercial antibodies
